In experiment [1] the target is T1, G9a and GLP (Homo sapiens, UniProt Q96KQ7+Q9H9B1).
T1 construct: endogenous in cells; host or cells: HEK 293T
T1 sequence (Q96KQ7 2-1210 limits assumed): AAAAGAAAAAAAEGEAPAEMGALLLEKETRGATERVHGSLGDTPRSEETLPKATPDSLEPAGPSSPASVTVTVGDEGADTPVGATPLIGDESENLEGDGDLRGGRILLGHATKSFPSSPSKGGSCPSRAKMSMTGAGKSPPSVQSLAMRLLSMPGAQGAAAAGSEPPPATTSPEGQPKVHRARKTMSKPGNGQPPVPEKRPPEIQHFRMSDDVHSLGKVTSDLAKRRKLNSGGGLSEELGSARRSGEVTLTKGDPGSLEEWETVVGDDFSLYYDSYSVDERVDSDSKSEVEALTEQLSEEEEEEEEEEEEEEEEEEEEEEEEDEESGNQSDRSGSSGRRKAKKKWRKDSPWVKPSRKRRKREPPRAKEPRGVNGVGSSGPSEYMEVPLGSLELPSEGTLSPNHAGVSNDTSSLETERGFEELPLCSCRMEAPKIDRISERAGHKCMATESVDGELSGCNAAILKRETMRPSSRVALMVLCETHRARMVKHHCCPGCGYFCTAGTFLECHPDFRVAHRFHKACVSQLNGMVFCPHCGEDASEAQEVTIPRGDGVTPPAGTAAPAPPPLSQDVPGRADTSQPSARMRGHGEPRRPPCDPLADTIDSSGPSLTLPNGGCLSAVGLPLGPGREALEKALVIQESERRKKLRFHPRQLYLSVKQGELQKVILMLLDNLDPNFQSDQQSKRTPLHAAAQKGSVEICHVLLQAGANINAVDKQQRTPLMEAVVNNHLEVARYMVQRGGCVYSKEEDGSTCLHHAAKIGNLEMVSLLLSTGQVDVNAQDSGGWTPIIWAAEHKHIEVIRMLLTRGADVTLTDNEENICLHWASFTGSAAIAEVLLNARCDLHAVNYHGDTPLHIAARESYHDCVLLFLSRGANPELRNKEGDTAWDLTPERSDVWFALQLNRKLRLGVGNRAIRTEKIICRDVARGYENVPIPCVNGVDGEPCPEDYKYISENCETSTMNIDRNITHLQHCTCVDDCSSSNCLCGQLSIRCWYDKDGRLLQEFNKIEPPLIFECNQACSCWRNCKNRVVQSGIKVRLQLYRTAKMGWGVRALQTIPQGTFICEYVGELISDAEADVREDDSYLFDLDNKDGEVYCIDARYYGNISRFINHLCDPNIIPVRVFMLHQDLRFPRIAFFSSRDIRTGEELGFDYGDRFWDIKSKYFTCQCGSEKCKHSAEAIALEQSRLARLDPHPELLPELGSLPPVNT
T1 sequence (Q9H9B1 2-1298 limits assumed): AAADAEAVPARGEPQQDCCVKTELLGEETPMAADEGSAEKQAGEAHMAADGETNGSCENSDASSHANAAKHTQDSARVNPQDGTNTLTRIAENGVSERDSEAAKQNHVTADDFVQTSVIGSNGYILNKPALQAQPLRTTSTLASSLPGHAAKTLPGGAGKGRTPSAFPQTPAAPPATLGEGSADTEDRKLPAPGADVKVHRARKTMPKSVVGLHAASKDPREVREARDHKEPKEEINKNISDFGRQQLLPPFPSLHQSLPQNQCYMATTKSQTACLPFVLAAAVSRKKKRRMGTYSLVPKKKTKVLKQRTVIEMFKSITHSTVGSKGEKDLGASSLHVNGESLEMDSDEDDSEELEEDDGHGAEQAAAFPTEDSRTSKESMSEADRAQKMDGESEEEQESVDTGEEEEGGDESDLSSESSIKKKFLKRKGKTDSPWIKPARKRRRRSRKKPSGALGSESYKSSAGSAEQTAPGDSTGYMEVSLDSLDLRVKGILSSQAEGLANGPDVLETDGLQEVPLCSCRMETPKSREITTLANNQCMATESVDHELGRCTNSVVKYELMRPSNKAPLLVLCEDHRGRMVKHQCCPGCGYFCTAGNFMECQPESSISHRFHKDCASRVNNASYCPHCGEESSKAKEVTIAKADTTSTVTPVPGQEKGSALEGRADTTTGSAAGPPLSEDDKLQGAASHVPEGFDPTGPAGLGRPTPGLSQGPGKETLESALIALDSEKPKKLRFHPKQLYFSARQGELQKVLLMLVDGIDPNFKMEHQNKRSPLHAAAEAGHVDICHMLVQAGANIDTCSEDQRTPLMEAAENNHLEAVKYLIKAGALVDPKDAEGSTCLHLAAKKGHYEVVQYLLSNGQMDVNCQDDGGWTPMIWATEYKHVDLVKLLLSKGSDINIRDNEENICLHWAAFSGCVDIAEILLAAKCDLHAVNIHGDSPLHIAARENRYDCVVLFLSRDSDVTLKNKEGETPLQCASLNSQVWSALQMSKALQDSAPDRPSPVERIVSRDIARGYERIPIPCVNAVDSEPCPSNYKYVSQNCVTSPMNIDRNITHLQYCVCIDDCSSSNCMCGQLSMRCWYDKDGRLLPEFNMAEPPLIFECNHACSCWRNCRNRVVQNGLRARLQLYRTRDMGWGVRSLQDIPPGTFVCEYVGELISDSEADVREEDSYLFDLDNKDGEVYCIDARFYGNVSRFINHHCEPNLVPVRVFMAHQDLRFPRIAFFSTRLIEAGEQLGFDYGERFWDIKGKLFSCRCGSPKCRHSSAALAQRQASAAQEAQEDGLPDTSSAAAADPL
Nature of the experiment: Triple SILAC pull-down after UNC0638 treatment of 293T cells, DMSO/UNC0638 ratio of protein captured by 3×MBT.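 For all read-outs here: mass spectrometry (Q-Exactive) SILAC quantitation, DMSO/UNC0638 ratio computed after subtracting 3×MBTD355N mutant pull-down background, only proteins with at least twofold 3×MBT over mutant signal considered.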 The format is cell-based. The following applies: for Relative to UNC0638 UNC Heavy: UNC0638 in heavy SILAC media; for Relative to UNC0638 UNC Light: UNC0638 in light SILAC media; for Relative to UNC0638 Average: average of UNC Light and UNC Heavy experiments.

The subject of experiment [2] is 3×MBT domain of L3MBTL1. Nature of the experiment: Triple SILAC pull-down, 3xMBT/3xMBTD355N ratio (cytoplasmic, nuclear and chromatin fractions of 293T cells).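 For all read-outs here: proteins quantified with MaxQuant, requiring at least two unique peptides and quantification in both label directions, normalized to the mean of proteins from a digested loading control.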 The format is binding, human. The settings on record: for 3xMBT/D355N UNC Heavy: experiment with UNC0638 in heavy SILAC media; for 3xMBT/D355N UNC Light: experiment with UNC0638 in light SILAC media.
Setting [3] is: SILAC ratio DMSO relative to UNC0638, pull-down with 3xMBT, all values in log base 2.
[4] abbreviates: SILAC ratio 3xMBT vs 3xMBTD355N pull-down, 293T cells, all values in log base 2.
[5] abbreviates: SILAC ratio DMSO/UNC0638 of protein pulled down with 3xMBT.
[6] abbreviates: SILAC ratio, pull-down 3xMBT vs 3xMBTD355N.

Turning to EIF4B, in experiment [1] (setting [3]), the “Relative to UNC0638 UNC Heavy” value is on record as −0.32 log base 2 and the “Relative to UNC0638 UNC Light” value came out at 0.03 log base 2. The “Relative to UNC0638 Average” value in experiment [1] (all values in log base 2) is given as −0.15 log base 2. For the same substance, in experiment [2] (setting [4]), the “3xMBT/D355N UNC Heavy” value came out at 3.26 log base 2 and the “3xMBT/D355N UNC Light” value is given as 2.50 log base 2.

Take SEC24C: in experiment [1] (setting [3]), the “Relative to UNC0638 UNC Heavy” value was 0.21 log base 2 and the “Relative to UNC0638 UNC Light” value is given as −0.05 log base 2. For the same substance, in experiment [1] (all values in log base 2), the “Relative to UNC0638 Average” value turned out to be 0.08 log base 2. Also, in experiment [2] (setting [4]), the “3xMBT/D355N UNC Heavy” value amounted to 2.58 log base 2 and the “3xMBT/D355N UNC Light” value was determined as 2.17 log base 2.

Take THOC2: in experiment [1] (setting [5]), the “Relative to UNC0638 UNC Heavy” value came to 0.64 log base 2 and the “Relative to UNC0638 UNC Light” value is −0.05 log base 2. Further, the “Relative to UNC0638 Average” value in experiment [1] turned out to be 0.30 log base 2. In addition, in experiment [2] (setting [6]), the “3xMBT/D355N UNC Heavy” value was 2.50 log base 2 and the “3xMBT/D355N UNC Light” value is recorded as 2.01 log base 2.

For the substance CTBP2, in experiment [1] (setting [5]), the “Relative to UNC0638 UNC Heavy” value is given as 0.50 log base 2 and the “Relative to UNC0638 UNC Light” value is on record as 0.15 log base 2. The “Relative to UNC0638 Average” value in experiment [1] is reported as 0.32 log base 2. In addition, in experiment [2] (setting [6]), the “3xMBT/D355N UNC Heavy” value is on record as 1.97 log base 2 and the “3xMBT/D355N UNC Light” value stood at 1.74 log base 2.

Turning to CLTC, in experiment [1] (setting [5]), the “Relative to UNC0638 UNC Heavy” value came to 0.24 log base 2 and the “Relative to UNC0638 UNC Light” value came out at 0.65 log base 2. Besides, the “Relative to UNC0638 Average” value in experiment [1] amounted to 0.44 log base 2. For the same substance, in experiment [1] (reduced association with 3xMBT after UNC0638 treatment), the “Candidate G9a/GLP target” value is “✓”. In addition, in experiment [2] (setting [6]), the “3xMBT/D355N UNC Heavy” value amounted to 2.19 log base 2 and the “3xMBT/D355N UNC Light” value came out at 2.98 log base 2.

As to TUBB4B, in experiment [1] (setting [5]), the “Relative to UNC0638 UNC Heavy” value stood at 0.42 log base 2 and the “Relative to UNC0638 UNC Light” value was found to be 0.03 log base 2. The “Relative to UNC0638 Average” value in experiment [1] was 0.23 log base 2. In addition, in experiment [2] (setting [6]), the “3xMBT/D355N UNC Heavy” value is 1.05 log base 2 and the “3xMBT/D355N UNC Light” value worked out at 1.75 log base 2.

Regarding GAPDH, in experiment [1] (setting [3]), the “Relative to UNC0638 UNC Heavy” value came to 0.14 log base 2 and the “Relative to UNC0638 UNC Light” value is on record as −0.24 log base 2. Besides, in experiment [1] (all values in log base 2), the “Relative to UNC0638 Average” value was −0.05 log base 2. Further, in experiment [2] (setting [4]), the “3xMBT/D355N UNC Heavy” value is given as 1.86 log base 2 and the “3xMBT/D355N UNC Light” value is on record as 1.59 log base 2.

Turning to PPP1CA, in experiment [1] (setting [3]), the “Relative to UNC0638 UNC Heavy” value is on record as 1.15 log base 2 and the “Relative to UNC0638 UNC Light” value is listed as −1.83 log base 2. The “Relative to UNC0638 Average” value in experiment [1] (all values in log base 2) was −0.34 log base 2. In experiment [2] (setting [4]), the “3xMBT/D355N UNC Heavy” value is given as 1.51 log base 2 and the “3xMBT/D355N UNC Light” value is on record as 0.12 log base 2.

Take BUB3: in experiment [1] (setting [5]), the “Relative to UNC0638 UNC Heavy” value stood at 0.15 log base 2 and the “Relative to UNC0638 UNC Light” value is recorded as 0.14 log base 2. The “Relative to UNC0638 Average” value in experiment [1] is 0.15 log base 2. In experiment [2] (setting [6]), the “3xMBT/D355N UNC Heavy” value stood at 2.75 log base 2 and the “3xMBT/D355N UNC Light” value is given as 3.26 log base 2.

The values are drawn from patent publication US20140274782A1, “AFFINITY REAGENTS AND METHODS FOR DETECTION, PURIFICATION, AND PROTEOMIC ANALYSIS OF METHYLATED PROTEINS” (The Board of Trustees of the Leland Stanford Junior …, priority 2013, published 2014).
